The values below come from article PMC4045858, “Biochemical Characterization of Human Gluconokinase and the Proposed Metabolic Impact of Gluconic Acid as Determined by Constraint Based Metabolic Network Analysis” (PLoS ONE, 2014).

Substrate in data set [1]: O=C(O)[C@H](O)[C@@H](O)[C@H](O)[C@H](O)CO
The experiment in a line: purified protein. The data set is classed as biochemical, Homo sapiens. The note with it: 1 mM ATP, 0.65 mM NADP+, 100 mM phosphate, 40 mM NaCl, 2.5 mM MgCl2, pH 7.2, 0.25 µM enzyme.

Substrate in data set [2]: Nc1ncnc2c1ncn2[C@@H]1O[C@H](COP(=O)(O)OP(=O)(O)OP(=O)(O)O)[C@@H](O)[C@H]1O
Description: purified protein. The conditions noted are these: gluconate as fixed co-substrate, 0.65 mM NADP+, 100 mM phosphate, 40 mM NaCl, 2.5 mM MgCl2, pH 7.2, 0.25 µM enzyme. The data set is classed as biochemical, Homo sapiens.

B1: human GntK (gluconokinase isoform I, C9orf103) (Homo sapiens) (protein)
chain: MAAPGALLVMGVSGSGKSTVGALLASELGWKFYDADDYHPEENRRKMGKGIPLNDQDRIPWLCNLHDILLRDVASGQRVVLACSALKKTYRDILTQGKDGVALKCEESGKEAKQAEMQLLVVHLSGSFEVISGRLLKREGHFMPPELLQSQFETLEPPAAPENFIQISVDKNVSEIIATIMETLKMK
notes: dimer, also tetramer
Take B1: in “purified protein [1]”, the Km was determined as 106.4 ± 18.5 µM, the maximal velocity (Vmax) came out at 138 µM/min, the kcat turned out to be 9.3 ± 0.5 s⁻¹ and the kcat/Km came to 89000 ± 13000 M⁻¹ s⁻¹. Also, in the data set “purified protein [2]”, the Km stood at 343.8 ± 13.9 µM, the Vmax worked out at 144 µM/min, the kcat was 9.5 ± 0.5 s⁻¹ and the kcat/Km was 28000 ± 2000 M⁻¹ s⁻¹.

As a reminder, the Km is the substrate concentration at which the rate is half of its maximum. One may read the Vmax as the rate approached at saturating substrate. A word on the kcat: it is the maximal rate divided by the concentration of active sites. In general, kcat/Km refers to the turnover number divided by the Michaelis constant.
